Reference: article PMC9282251

T1: GFP-tagged Kif4A (human), O95239
T1 chain: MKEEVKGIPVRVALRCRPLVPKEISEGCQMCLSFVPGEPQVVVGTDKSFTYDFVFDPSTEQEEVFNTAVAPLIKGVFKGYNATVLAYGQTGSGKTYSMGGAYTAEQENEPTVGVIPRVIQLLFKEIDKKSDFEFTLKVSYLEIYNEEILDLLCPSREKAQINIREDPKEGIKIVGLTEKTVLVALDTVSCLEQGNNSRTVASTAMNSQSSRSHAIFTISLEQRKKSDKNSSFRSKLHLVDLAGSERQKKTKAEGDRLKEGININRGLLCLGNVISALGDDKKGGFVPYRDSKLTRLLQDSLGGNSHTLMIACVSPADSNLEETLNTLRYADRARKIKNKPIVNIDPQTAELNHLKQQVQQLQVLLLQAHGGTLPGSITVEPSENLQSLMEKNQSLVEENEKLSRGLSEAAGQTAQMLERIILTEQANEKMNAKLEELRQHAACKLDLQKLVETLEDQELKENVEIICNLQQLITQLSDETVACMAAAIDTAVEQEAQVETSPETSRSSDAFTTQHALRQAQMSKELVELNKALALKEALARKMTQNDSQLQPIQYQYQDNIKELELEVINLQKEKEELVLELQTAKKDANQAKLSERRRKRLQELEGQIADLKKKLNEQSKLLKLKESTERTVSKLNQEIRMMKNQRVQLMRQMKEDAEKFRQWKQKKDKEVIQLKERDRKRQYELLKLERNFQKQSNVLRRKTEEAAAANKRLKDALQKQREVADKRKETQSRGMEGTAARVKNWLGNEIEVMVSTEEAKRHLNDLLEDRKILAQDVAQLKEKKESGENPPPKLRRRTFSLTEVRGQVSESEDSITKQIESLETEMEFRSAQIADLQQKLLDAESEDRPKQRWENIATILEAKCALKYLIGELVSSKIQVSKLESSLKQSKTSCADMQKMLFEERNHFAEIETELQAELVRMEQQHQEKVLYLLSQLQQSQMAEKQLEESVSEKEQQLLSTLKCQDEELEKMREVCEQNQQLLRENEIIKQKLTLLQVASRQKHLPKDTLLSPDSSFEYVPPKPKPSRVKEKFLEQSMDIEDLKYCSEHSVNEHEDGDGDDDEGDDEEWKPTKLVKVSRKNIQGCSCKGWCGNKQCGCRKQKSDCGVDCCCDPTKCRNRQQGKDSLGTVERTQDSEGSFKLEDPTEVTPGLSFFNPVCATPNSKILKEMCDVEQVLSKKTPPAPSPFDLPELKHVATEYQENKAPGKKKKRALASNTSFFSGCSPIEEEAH

T2: Kif4A-mCherry (human), O95239
T2 chain: T1 chain

B1: GFP-tagged Kif4A, O95239 1-1232 (natural protein)
chain: T1 chain
B2: Kif4A-mCherry, O95239 1-1232 (natural protein)
chain: T1 chain

Legend:
[1] = target: T1, GFP-tagged Kif4A (human), O95239; assay: single-molecule photobleaching and fluorescence intensity analysis; conditions: remark: other sources report otherwise
[2] = target: T2, Kif4A-mCherry (human), O95239; assay: as above; conditions: remark: other sources report otherwise

Binder	stoichiometry N [1]	stoichiometry N [2]
B1	2	–
B2	–	2
